T1: cell surface expressed human PAR-2 (human, UniProt P55085 25-397)
T1 sequence: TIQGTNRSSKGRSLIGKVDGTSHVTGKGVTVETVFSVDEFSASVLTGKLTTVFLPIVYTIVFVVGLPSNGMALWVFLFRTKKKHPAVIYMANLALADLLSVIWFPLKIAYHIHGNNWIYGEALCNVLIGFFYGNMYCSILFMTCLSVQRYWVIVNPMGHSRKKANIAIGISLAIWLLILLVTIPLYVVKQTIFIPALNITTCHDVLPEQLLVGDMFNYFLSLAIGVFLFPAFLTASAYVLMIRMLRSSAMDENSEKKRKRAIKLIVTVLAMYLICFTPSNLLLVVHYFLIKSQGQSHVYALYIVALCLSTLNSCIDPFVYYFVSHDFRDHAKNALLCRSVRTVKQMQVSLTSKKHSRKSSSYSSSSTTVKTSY


Columns and labels:
[1] = biological target: PAR-2 (on the cells of the FLIPR Ca2+ mobilization assay); test: cell-based or functional assay
[2] = biological target: T1, cell surface expressed human PAR-2; test: KinExA, cells expressing human PAR-2, averaged for N=5 experiments; antibody 1A1; N=5 experiments
Source text: This example describes the analysis of the binding properties of PAR-2 antigen-binding proteins to cell surface expressed PAR-2 utilizing a Kinetic Exclusion Assay which measures binding events in solution phase and can be used to calculate KD, Kₒₙ and Koff (KinExA®; Sapidyne Instruments, Boise, Id.), substantially as described previously by Xie et. al. J. Imm, Methods 304:1 (2005) and Rathanaswami et. al. Anal. Biochem. 373:52 (2008). Briefly, serial dilutions of cells expressing human PAR-2 (for example, CHO transfectants expressing human PAR-2 at the cell surface, obtainable by transfecting CHO cells with human full length PAR-2 cDNA encoding a polypeptide of SEQ ID NO:2) and control cells (i.e., non-transfected CHO cells) in a modified DMEM medium (phenol red free containing 10% heat inactivated FBS, 0.1 mM MEM non-essential amino acids, 1 mM sodium pyruvate, penicillin-streptomycin-glutamine, and 0.025% (w/w) sodium azide) are incubated with set amounts of antibody for 24 to 36 hours at 4 C with rotation. […] The free mAb is measured by KinExA® using the appropriate capture beads and Cy5-conjugated anti-human secondary antibodies, as described by Rathanaswami et al. Biochem Biophys Research Commun:1004 (2005). […]
The KD of certain PAR-2 antibodies was determined in this manner.

[3] = biological target: T2, clipped N-terminal PAR-2/Fc polypeptide (human); test: Western blot; by the footnote, an upstream binder binds only the full-length PAR-2/Fc
T2 construct: also called truncated amino-terminal PAR-2-Fc; cleaved PAR-2/Fc
Source text: To analyze binding to uncleaved versus cleaved PAR-2, various amounts of purified uncleaved and clipped N-terminal PAR2-Fc are subjected to SDS-PAGE using 8-16% polyacrylamide gradient gels (Novex gels, Invitrogen Life Technologies) in a Tris-Glycine buffer system. Gel lanes containing See Blue standards (Novex, Invitrogen Life Technologies) for molecular weight identification are also included. Following electrophoresis, proteins are transferred from gels onto nitrocellulose membranes using a Novex XCell II Blot Module (Invitrogen Life Technologies). Membranes are blocked with 1:1, Odyssey blocking buffer, OBB, (LI-COR Biosciences):TBS (Tris Buffer Saline) overnight at 4 C with shaking. Antibodies to be analyzed are diluted in 1:1 OBB:TBS at a desired final concentration for 1 hr at room temperature. Membranes are washed extensively with 0.1% Tween 20 in TBS (3-4 changes of 100 ml over ˜1 hr). Membranes are then exposed to the appropriate secondary antibody-Alexa680 (Molecular Probes, Invitrogen Life Technologies) conjugate (goat anti-rabbit IgG, or goat anti-mouse IgG) diluted 1:5000 in 1:1 (OBB:TBS) for 1 hr at room temperature. Membranes are washed as described above, and if desired, analyzed using a LI-COR Odyssey Infrared Imaging System (LI-COR Biosciences).
Several PAR-2 antibodies were tested in different assay formats; Table 2 summarizes the results. IC₅₀ values were determined in a FLIPR assay for Ca2+ mobilization described previously; binding to the upstream region of the cleavage site versus the downstream region of the cleavage site was determined using the Western blot assay described previously.

Sequence of PAR-2 (on the cells of the FLIPR Ca2+ mobilization assay) (P55085 whole entry): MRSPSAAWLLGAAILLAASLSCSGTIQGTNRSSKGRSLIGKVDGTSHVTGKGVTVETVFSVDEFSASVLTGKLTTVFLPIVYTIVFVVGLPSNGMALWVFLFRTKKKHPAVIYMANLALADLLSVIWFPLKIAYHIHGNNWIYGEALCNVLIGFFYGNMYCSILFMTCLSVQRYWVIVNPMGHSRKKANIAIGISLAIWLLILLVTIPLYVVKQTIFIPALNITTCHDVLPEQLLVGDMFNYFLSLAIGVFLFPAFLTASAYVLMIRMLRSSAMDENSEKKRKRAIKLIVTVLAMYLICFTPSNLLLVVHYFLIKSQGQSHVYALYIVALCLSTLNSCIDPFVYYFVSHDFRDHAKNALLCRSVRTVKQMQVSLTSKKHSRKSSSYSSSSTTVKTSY

Binder | IC50, FLIPR assay for Ca2+ mobilization [1] [nM] | Kd [2] [nM] | binding result [3]
anti-PAR-2 antibody 1A1 (antibody, V domains shown, Human antibody from a XenoMouse hybridoma; also called monoclonal antibody 1A1) VH: EVQLVQSGAEVKKPGESLKISCKGSGYNFISHWIGWVRQMPGKGLEWMGMIYPGDSDTRYSPSFQGQVTISADKSINTAYLQWRSLKASDTAMYFCARHGGITGTTFYYDFGMDVWGQGTTVTVSS VL: SYELTQPPSVSVSPGQTARITCSGDALPKQYASWYQQKPGQAPLLVIYRDSERPSGLPERFSGSSSGTTVTLTISGVQAEDEADYYCQSADSGGSYVFGTGTKVTVL | 2 | 0.0628 | no binding
anti-PAR-2 antibody 1B5 (antibody, V domains shown, Human antibody from a XenoMouse hybridoma) VH: EVQLVQSGAEVKKSGESLKISCKGSGYSFSNYWIGWVRQMPGKGLEWMGIIYPGDSDTRYSPSFQGQVTISADKSIRTAYLQWSSLKASDTAMYYCARHKGITGTTFYYDYGMDVWGQGTTVTVSS VL: SYELTQPPSVSVSPGQTARITCSGEALPKQYASWYQQKPGQAPVLVIYRDTERPSGIPERFSGSSSGTTVTLTISGVQAEDEADYYCQSADSNGAYVFGTGTRVTVL | 3 | – | no binding
anti-PAR-2 antibody 1C7 (antibody, V domains shown, Human antibody from a XenoMouse hybridoma) VH: EVQLVQSGAEVKKPGESLKISCKGSGYSFTSYWIGWVRQMPGKGLEWMGIIYPGDSDTRYSPSFQGQVTISADKSIRTAYLQWSSLKASDTAMYYCARHKGITGTTFYYDYGMDVWGQGTTVTVSS VL: SYELTQPPSVSVSPGQTARITCSGEALPKQYASWYQQKPGQAPVLVIYKDSERPSGIPERFSGSSSGTTVTLTISGVQAEDEADYYCQSADSNGAYVFGTGTKVTVL | 3 | – | no binding
anti-PAR-2 antibody 2C6 (antibody, V domains shown) VH: QVQLVQSGAEVKKPGASVKVSCKASGYTFTGYFFHWVRQAPGQGLEWVGWINPNSGATHFAQKFQGRVTMTRDTSISTAYMELSRLRSDDTAVYYCARDGSNWNRDYGMDVWGQGTTVTVSS VL: QSVLTQPPSASGTPGQRVTISCSGSSSNIGINHVYWYQQLPGTAPKIFIYRNNQRPSGVPDRFSGSKSGTSASLAISGLRSEDEADYYCAVWDDSLSGVVFGGGTKLTVLG | > 1000 | – | –
anti-PAR-2 antibody 9B12 (antibody, V domains shown) VH: QVQLVESGGGVVQPGRSLRLSCAASGFTFSSYGMHWVRQAPGKGLEWVAVIWYDGSNKYYADSVKGRFTISRDNSKNTLYLQMNSLRAEDTAVYYCARDLGAAAGTGFDYWGQGTLVTVSS VL: QSVLTQPPSVSAAPGQKVTISCSGSSSNIGNNYVSWYQQLPGTAPKLLIYDNNKRPSGIPDRFSGSKSGTSATLGITGLQTGDEADYYCGTWDSSLSAGVVFGGGTKLTVL | > 1000 | – | –
anti-PAR-2 antibody 12D5 (antibody, V domains shown) VH: QVQLQQSGPGLVKPSQTLSLTCAISGDSVSSNRAAWNWIRQSPSRGLEWLGRTYYRSKWYNDFAVSVRSRITITPDTSKNQFSLQLNSVTPEDTAVYYCARDRNSGYYYYGLDVWGQGTTVTVSS VL: not shown | > 1000 | – | –
anti-PAR-2 antibody 13F2 (antibody, V domains shown) VH: QVQLQQSGPGLVKPSQTLSLTCAISGDSVSSNRAAWNWIRQSPSRGLEWLGRTYYRSKWYNDHAVSVKSRITITPDTSKNQFSLQLNSVTPEDKAVYYCARDRNSGYYYYGLDVWGQGTTVTVSS VL: not shown | > 1000 | – | –

— patent US20110059063A1 (Amgen, published 2011)
